The record followed here is publication PMC5376648, “Cell-free reconstitution reveals centriole cartwheel assembly mechanisms” (Nature Communications, 2017).

Data set [1] concerns the molecule itself. In words: cryo-EM and cryo-electron tomography of assemblies formed in a cell-free assay; soluble protein alone (CrSAS-6_FL 10 uM or His-Stag-CrSAS-6_NL 20 uM in 20 mM Tris pH 7.5, 150 mM NaCl) dialysed >16 h against 10 mM K-PIPES pH 7.2; structures formed in solution vitrified and imaged.
Data set [2] concerns the molecule itself. In words: negative staining EM of assemblies; CrSAS-6_NL diluted in 10 mM K-PIPES pH 7.0 to 3 ug/ml, deposited on carbon-coated grids, stained with 2% uranyl acetate.

B1: His-Stag-CrSAS-6_NL(1-503) (domain or fragment, Chlamydomonas reinhardtii, UniProt A9CQL4 1-503, looked up)
chain: MPLLLDDGDPKAQTGFDLSTATTLFWRPVPVHVKQQDREDVLEELTFRILTGVAKQNHNLRILRIHISSDSDLFFLHTLEVSEEDFQSLKNDQGILVDFASFPGKIISLLEKCILAQPGDSPRFQAVLTIRGGESVFKIVEINDFKQLPHITLAFRPGNDSVVKQFLAFRLSEVKGTCHDLSDDLSRTRDDRDSMVAQLAQCRQQLAQLREQYDKHLLEVQAQAKTQQASAHEERIREKSQLKDQFEKERGEMEGRYRDQIAALNTRLGELDTENRKLREVKYELDTKVSELSHKLGSSEGSNRSLEEETARLRSLNQQLSSSKHELEIQLNEAKAKVLALDEKAQSQGDVIEQQRGRLRDMEAALRQTEQRCADLRDTLASAEGRAKEAQAEVLKGNQAIEKLTNDLRLAKEKTKRKAAIILRQEEELQEREQSLANATRDVGVLGQQAESLRKDVASLHSENDSLRSKLEDSKQQLQSNEQMIRWLNQQVTEAQLHASGAT
notes: CrSAS-6 (Bld12p) of Chlamydomonas reinhardtii, residues 1-503; C-terminal truncation that keeps the N-terminal domain and the entire coiled coil; This form was used for cryo-EM and cryo-ET; source: E. coli BL21(DE3), purified (Ni-NTA, size exclusion chromatography)
Consider B1, for which, in data set [1], the binding result is on record as “binds”.

B2: CrSAS-6_NL(1-503), 6xHis tag cleaved (domain or fragment, Chlamydomonas reinhardtii, UniProt A9CQL4 1-503, looked up)
chain: MPLLLDDGDPKAQTGFDLSTATTLFWRPVPVHVKQQDREDVLEELTFRILTGVAKQNHNLRILRIHISSDSDLFFLHTLEVSEEDFQSLKNDQGILVDFASFPGKIISLLEKCILAQPGDSPRFQAVLTIRGGESVFKIVEINDFKQLPHITLAFRPGNDSVVKQFLAFRLSEVKGTCHDLSDDLSRTRDDRDSMVAQLAQCRQQLAQLREQYDKHLLEVQAQAKTQQASAHEERIREKSQLKDQFEKERGEMEGRYRDQIAALNTRLGELDTENRKLREVKYELDTKVSELSHKLGSSEGSNRSLEEETARLRSLNQQLSSSKHELEIQLNEAKAKVLALDEKAQSQGDVIEQQRGRLRDMEAALRQTEQRCADLRDTLASAEGRAKEAQAEVLKGNQAIEKLTNDLRLAKEKTKRKAAIILRQEEELQEREQSLANATRDVGVLGQQAESLRKDVASLHSENDSLRSKLEDSKQQLQSNEQMIRWLNQQVTEAQLHASGAT
notes: CrSAS-6 (Bld12p) of Chlamydomonas reinhardtii, residues 1-503; This form was used for negative staining EM; also called 6xHis-CrSAS-6_NL(1-503) (before cleavage)
Regarding B2, the binding result in data set [2] was “binds”.

B3: full-length CrSAS-6 (HisCrSAS-6_FL) (natural protein, Chlamydomonas reinhardtii, UniProt A9CQL4 1-728, looked up)
chain: MPLLLDDGDPKAQTGFDLSTATTLFWRPVPVHVKQQDREDVLEELTFRILTGVAKQNHNLRILRIHISSDSDLFFLHTLEVSEEDFQSLKNDQGILVDFASFPGKIISLLEKCILAQPGDSPRFQAVLTIRGGESVFKIVEINDFKQLPHITLAFRPGNDSVVKQFLAFRLSEVKGTCHDLSDDLSRTRDDRDSMVAQLAQCRQQLAQLREQYDKHLLEVQAQAKTQQASAHEERIREKSQLKDQFEKERGEMEGRYRDQIAALNTRLGELDTENRKLREVKYELDTKVSELSHKLGSSEGSNRSLEEETARLRSLNQQLSSSKHELEIQLNEAKAKVLALDEKAQSQGDVIEQQRGRLRDMEAALRQTEQRCADLRDTLASAEGRAKEAQAEVLKGNQAIEKLTNDLRLAKEKTKRKAAIILRQEEELQEREQSLANATRDVGVLGQQAESLRKDVASLHSENDSLRSKLEDSKQQLQSNEQMIRWLNQQVTEAQLHASGATVAGSRYAFRPSAALPGSMPPPSVAATPAVGLLAAPGPSTAYKPGGTTSRYASTLGVTGLSSGLSGAGATSVGAAVAGGSYGAGGDSSYRPGVGGAYASSGGAGGFGGSVGGGGQVGGSGSAIGAATGAGSALGTYRSSYAASTHPSPGGVTAGMGSTLTTPAVNRYAAGSYSSVSSSLSFGGGLGAARAVDATPAASKYGVGFSNAAMGVVGTVGGAGGTDAQRA
notes: SAS-6 protein Bld12p (CrSAS-6) of Chlamydomonas reinhardtii, full length; A 6xHis tag stands between the Prescission site and CrSAS-6 and remains after cleavage; also called Bld12p; GST-HisCrSAS-6_FL (before cleavage); source: E. coli BL21(DE3), purified (glutathione agarose beads, eluted with Prescission Protease to remove GST); not shown: GST, N-terminal, cleaved; His6, N-terminal, kept
On to B3, for which the binding result in data set [1] is reported as “binds”.
